Drawing on the Human Domainome abundance scans (Beltran et al. 2025), this text covers abundance fitness for 167 variants.

± gives the uncertainty stated by the source.

B1: 3'-5' exoribonuclease 1, residues 65 to 114; numbered along this chain, Q8IV48 (parent)
chain: VYKEIAITNGCINRMSKEELRAKLSEFKLETRGVKDVLKKRLKNYYKKQK
B2: Ankyrin-3, residues 4094 to 4171; numbered along this chain, Q12955 (parent)
chain: MAIVADHLGLSWTELARELNFSVDEINQIRVENPNSLISQSFMLLKKWVTRDGKNATTDALTSVLTKINRIDIVTLLE

The variants in one data set derive from B1. The data set is described as follows: abundance fitness (aPCA) (normalised: wild type 0, dead -1); higher = more abundant; growth selection in yeast, the domain comes from the species named. Conditions: Homo sapiens.
As to T8H, the abundance fitness is -0.268 ± 0.049.

For the variant G10I, the abundance fitness is -0.34 ± 0.07.

Take G10W: the abundance fitness is -0.401 ± 0.041.

As to G10N, the abundance fitness was -0.147 ± 0.076.

On to D36H, for which the abundance fitness was 0 ± 0.036.

With D36W, the abundance fitness was -0.106 ± 0.048.

Regarding D36F, the abundance fitness is -0.289 ± 0.035.

Consider C11I, for which the abundance fitness came out at 0.007 ± 0.05.

On to C11R, for which the abundance fitness is -0.074 ± 0.037.

Consider K48L, for which the abundance fitness was -0.264 ± 0.036.

For K48D, the abundance fitness is -0.329 ± 0.059.

As to K48N, the abundance fitness is -0.164 ± 0.06.

Regarding T31I, the abundance fitness was -0.134 ± 0.035.

Regarding I12S, the abundance fitness is -0.769 ± 0.04.

For K47M, the abundance fitness is -0.34 ± 0.061.

With K47Y, the abundance fitness was -0.533 ± 0.068.

For the variant K47T, the abundance fitness is -0.416 ± 0.047.

Take K47I: the abundance fitness is -0.415 ± 0.057.

K47A: the abundance fitness is -0.288 ± 0.044.

Consider K40W, for which the abundance fitness is -0.985 ± 0.062.

As to E26G, the abundance fitness is -0.24 ± 0.042.

Turning to E26S, the abundance fitness is -0.185 ± 0.048.

With V37F, the abundance fitness is -0.562 ± 0.053.

Turning to V37K, the abundance fitness is 0.027 ± 0.075.

With K3D, the abundance fitness was -0.192 ± 0.072.

As for K3Q, the abundance fitness is -0.035 ± 0.061.

Consider R14C, for which the abundance fitness is -0.315 ± 0.041.

With L24A, the abundance fitness is -0.704 ± 0.06.

As for K43L, the abundance fitness is -0.593 ± 0.042.

On to N44L, for which the abundance fitness is -0.168 ± 0.036.

With N44M, the abundance fitness was -0.164 ± 0.048.

Regarding N44K, the abundance fitness is 0.05 ± 0.051.

For S16A, the abundance fitness is -0.445 ± 0.082.

Regarding S16E, the abundance fitness was -0.746 ± 0.28.

For the variant S16I, the abundance fitness is -0.828 ± 0.078.

Regarding S16Y, the abundance fitness was -0.461 ± 0.054.

For S16R, the abundance fitness is -0.097 ± 0.061.

On to Y45I, for which the abundance fitness was -0.664 ± 0.08.

Take Y45D: the abundance fitness was -0.954 ± 0.076.

Turning to Y45G, the abundance fitness was -0.891 ± 0.045.

On to Y45N, for which the abundance fitness was -0.64 ± 0.081.

On to V1Y, for which the abundance fitness is -0.083 ± 0.12.

Turning to E18A, the abundance fitness amounted to 0.079 ± 0.039.

With E18L, the abundance fitness was -0.025 ± 0.039.

With K28V, the abundance fitness was -0.817 ± 0.058.

Regarding K28L, the abundance fitness was -0.732 ± 0.053.

As to L20C, the abundance fitness was -0.879 ± 0.064.

For the variant L20V, the abundance fitness was -0.568 ± 0.038.

In the case of L20K, the abundance fitness is -0.956 ± 0.085.

Regarding K39Y, the abundance fitness is -0.917 ± 0.09.

For K39H, the abundance fitness was -1.11 ± 0.099.

In the case of K39M, the abundance fitness is -0.521 ± 0.11.

As for K39N, the abundance fitness is -0.582 ± 0.057.

Consider Y2Q, for which the abundance fitness turned out to be 0.076 ± 0.076.

In the case of K17F, the abundance fitness is -0.646 ± 0.058.

On to K17L, for which the abundance fitness was -0.592 ± 0.058.

For K17W, the abundance fitness was -0.871 ± 0.17.

Regarding E19C, the abundance fitness was -0.382 ± 0.053.

Turning to E19K, the abundance fitness was -0.324 ± 0.052.

As to K35C, the abundance fitness is -0.58 ± 0.052.

For the variant K35P, the abundance fitness is -0.797 ± 0.05.

Take V34G: the abundance fitness is -0.213 ± 0.05.

As to M15C, the abundance fitness is -0.826 ± 0.088.

Turning to Y46M, the abundance fitness worked out at 0.111 ± 0.046.

In the case of Y46E, the abundance fitness was -0.703 ± 0.057.

As to N9V, the abundance fitness was -0.092 ± 0.043.

In the case of N9C, the abundance fitness was -0.047 ± 0.041.

Turning to Q49R, the abundance fitness was -0.221 ± 0.032.

On to Q49G, for which the abundance fitness was -0.306 ± 0.035.

With Q49C, the abundance fitness was -0.154 ± 0.05.

For F27L, the abundance fitness was determined as 0.148 ± 0.034.

Consider I5E, for which the abundance fitness is -0.044 ± 0.092.

I5G: the abundance fitness stood at 0.025 ± 0.046.

For the variant L38F, the abundance fitness is -0.668 ± 0.049.

On to L38D, for which the abundance fitness was -0.376 ± 0.25.

Regarding E4K, the abundance fitness is -0.251 ± 0.056.

For the variant E4A, the abundance fitness was -0.113 ± 0.038.

Regarding E4M, the abundance fitness is -0.144 ± 0.05.

For E30V, the abundance fitness is -0.738 ± 0.058.

E30M: the abundance fitness is -0.685 ± 0.061.

Turning to E30T, the abundance fitness was -0.566 ± 0.038.

Consider N13A, for which the abundance fitness was -0.487 ± 0.037.

Take I7L: the abundance fitness amounted to 0.019 ± 0.035.

In the case of I7T, the abundance fitness is -0.1 ± 0.056.

In the case of I7Y, the abundance fitness was -0.14 ± 0.048.

Consider I7V, for which the abundance fitness is -0.091 ± 0.037.

For R32N, the abundance fitness is -0.409 ± 0.037.

For the variant K23Q, the abundance fitness is -0.11 ± 0.049.

In the case of L29G, the abundance fitness is -0.875 ± 0.051.

In the case of L29H, the abundance fitness was -0.974 ± 0.051.

Regarding L29N, the abundance fitness is -0.827 ± 0.052.

As to A22Q, the abundance fitness is -0.044 ± 0.06.

In the case of A22W, the abundance fitness is -0.209 ± 0.046.

Consider K50V, for which the abundance fitness is -0.081 ± 0.23.

Consider R41I, for which the abundance fitness is -0.865 ± 0.18.

Consider R41N, for which the abundance fitness is -0.895 ± 0.17.

Consider G33F, for which the abundance fitness is -0.977 ± 0.056.

A further data set covers variants of B2. Described as above. Conditions: Homo sapiens.
As to L76W, the abundance fitness was -0.489 ± 0.12.

Take L76T: the abundance fitness was -0.197 ± 0.083.

With L76Y, the abundance fitness is -0.546 ± 0.33.

Take L76D: the abundance fitness is -0.351 ± 0.32.

On to L76I, for which the abundance fitness was found to be 0.434 ± 0.46.

As to L76G, the abundance fitness is -0.457 ± 0.066.

On to L76H, for which the abundance fitness was -0.064 ± 0.12.

Consider L76E, for which the abundance fitness is -0.185 ± 0.098.

Regarding L76N, the abundance fitness was -0.292 ± 0.31.

With L76V, the abundance fitness turned out to be 0.026 ± 0.058.

As for L76Q, the abundance fitness is 0.028 ± 0.085.

As for L76A, the abundance fitness was determined as 0.08 ± 0.077.

Take L76R: the abundance fitness stood at 0.045 ± 0.039.

Consider L76C, for which the abundance fitness is -0.045 ± 0.096.

With L76M, the abundance fitness turned out to be 0.067 ± 0.23.

With L76P, the abundance fitness was -0.438 ± 0.079.

For L76S, the abundance fitness is -0.175 ± 0.06.

As for L76F, the abundance fitness was -0.231 ± 0.21.

T75I: the abundance fitness is -0.182 ± 0.11.

T75V: the abundance fitness was -0.112 ± 0.088.

For the variant T75M, the abundance fitness was -0.026 ± 0.1.

Consider T75C, for which the abundance fitness was -0.081 ± 0.071.

For T75Q, the abundance fitness was 0.026 ± 0.083.

T75W: the abundance fitness is -0.189 ± 0.072.

T75N: the abundance fitness was found to be 0.06 ± 0.1.

On to T75R, for which the abundance fitness is -0.002 ± 0.048.

As for T75L, the abundance fitness worked out at 0.006 ± 0.056.

As for T75D, the abundance fitness was -0.155 ± 0.13.

As to T75F, the abundance fitness is -0.236 ± 0.22.

T75S: the abundance fitness is -0.004 ± 0.056.

For the variant T75H, the abundance fitness was -0.219 ± 0.15.

As to T75E, the abundance fitness amounted to 0.079 ± 0.1.

As for L77R, the abundance fitness was -0.93 ± 0.13.

As to L77S, the abundance fitness was -0.526 ± 0.088.

For the variant L77H, the abundance fitness is -0.742 ± 0.23.

As for L77Q, the abundance fitness was -0.805 ± 0.23.

Turning to L77M, the abundance fitness was -0.022 ± 0.12.

For L77K, the abundance fitness is -0.602 ± 0.22.

Regarding L77I, the abundance fitness was -0.293 ± 0.22.

Turning to L77V, the abundance fitness was -0.139 ± 0.048.

As for L77P, the abundance fitness was -0.768 ± 0.14.

For the variant L77T, the abundance fitness is -0.434 ± 0.097.

For the variant L77W, the abundance fitness is -0.518 ± 0.077.

On to L77C, for which the abundance fitness was -0.164 ± 0.12.

L77G: the abundance fitness is -0.68 ± 0.11.

For K67T, the abundance fitness was -0.228 ± 0.18.

In the case of K67L, the abundance fitness was -0.641 ± 0.2.

Take K67P: the abundance fitness was -0.646 ± 0.2.

For K67R, the abundance fitness was -0.091 ± 0.1.

Take K67Q: the abundance fitness was -0.056 ± 0.12.

On to K67V, for which the abundance fitness was -0.276 ± 0.051.

As for K67C, the abundance fitness was -0.436 ± 0.25.

With K67G, the abundance fitness is -0.525 ± 0.1.

Turning to K67N, the abundance fitness was -0.48 ± 0.25.

Consider K67H, for which the abundance fitness was -0.247 ± 0.16.

On to K67A, for which the abundance fitness is -0.135 ± 0.078.

Take K67S: the abundance fitness was -0.285 ± 0.072.

With K67W, the abundance fitness was -0.667 ± 0.37.

I73H: the abundance fitness was -0.715 ± 0.24.

I73M: the abundance fitness was -0.503 ± 0.14.

For the variant I73Y, the abundance fitness is -0.938 ± 0.39.

Turning to I73P, the abundance fitness was -0.858 ± 0.17.

For the variant I73C, the abundance fitness was -0.695 ± 0.16.

With I73S, the abundance fitness was -0.849 ± 0.25.

Take I73G: the abundance fitness is -0.977 ± 0.15.

As to I73V, the abundance fitness was -0.276 ± 0.089.

I73N: the abundance fitness is -0.597 ± 0.39.

Take I73A: the abundance fitness was -0.631 ± 0.16.

For the variant I73L, the abundance fitness was -0.148 ± 0.05.

For I73E, the abundance fitness is -0.989 ± 0.31.
